This is an account of results in the nanobody polyreactivity screen of Harvey et al. (2022).

The nature of this data set: yeast display, Sf9 membrane polyspecificity reagent, FACS + sequencing; frameworks hold sequencing errors. Summed up: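 A synthetic nanobody library was expressed on Saccharomyces cerevisiae BJ5465 by galactose induction for 36–48 hours. The library was stained for 1 hour at 4 °C with 10% biotinylated, detergent-solubilized Sf9 membrane reagent and enriched with streptavidin microbeads before FACS. Low and high (top ~1%) gates were set on anti-HA fluorescence for expression and streptavidin fluorescence for reagent binding, and each polyreactivity label reflects the gate of origin.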
Turning to “QVQLVESGGGLVQAGGSLRLSCAASGRIYSTNAMRWYRQAPGKEREFVAAIYWIGGSTYYADSVKGRFTISRDNAKNTVYLQMNSLKPEDTAVYYCAAGVYDDYPWSYDIFNLYDYWGQGTQVTVSS”, the “polyreactivity (PSR sort gate)” value is reported as “low polyreactivity”.

As for “QVQLVESGGGLVQAGGSLRLSCAASGRIYTYYTMGWYRQAPGKERELVAAITVRGGRTYYADSVKGRFTISRDNAKNTVYLQMNSLKPEDTAVYYCAARGLVRSYDYWGQVTQVTVSS”, the “polyreactivity (PSR sort gate)” value is “high polyreactivity”.

In the case of “QVQLVESGGGLVQAGGSLRLSCAASGRIYVYAMGWYRQAPGKEREMVAAITASDGSTYYADSVKGRFTISRDNAKNTVYLQMNSLKPEDTAVYYCAADIYEHNYYGYYYWGQGTKVTVSS”, the “polyreactivity (PSR sort gate)” value is given as “high polyreactivity”.

As for “QVQLVESGGGLVQAGGSLRLSCAASGRIYWNTKGWYRQAPGKERELVASISTGGGRTYYADSVKGRFTISRDNAKNTVYLQMNSLKPEDTAVYYCAARRGAGYSRFNYWGQGTQVTVSS”, the “polyreactivity (PSR sort gate)” value is given as “high polyreactivity”. In the case of “QVQLVESGGGLVQAGGSLRLSCAASGRIYYSNVMGWYRQAPGTERELVAAISGRTGGTYYADSVKGRFTISRDNAKNTVYLQMNSLKPEDTAVYYCAARVIYYYGYCTYDYWGQGTQVTVSS”, the “polyreactivity (PSR sort gate)” value is on record as “low polyreactivity”. “QVQLVESGGGLVQAGGSLRLSCAASGRIYYTYAMGWYRQAPGKERELVAAIRRGGSTNYADSVKGRFTISRDNAKNTVYLQMNSLKPEDTAVYYCAADVYRASFWYGYWGQGTQVTVSS”: the “polyreactivity (PSR sort gate)” value is reported as “low polyreactivity”. Consider “QVQLVESGGGLVQAGGSLRLSCAASGRLFSYNAMGWYSQAPGKERELVAGITYGSTYYADSVKGRFRISRDNAKNTVYLQMNSLKPEDTAVYYSAADQSYTSVHGYRSDTLMDYWGQGTQGTVSS”, for which the “polyreactivity (PSR sort gate)” value was “low polyreactivity”. For the sequence “QVQLVESGGGLVQAGGSLRLSCAASGRLFTIYAMGGYTQAPGKERELVATISRRGGSTYYADSVKGRFTISRDNAKNTVYLQMNSLKPEDTAVYYCAKRQRSKAAVAGYVDATGEMDYWGQGTQVTVSS”, the “polyreactivity (PSR sort gate)” value is “high polyreactivity”.

For “QVQLVESGGGLVQAGGSLRLSCAASGRLFTYYVMGWYRQAPGKERELVAAISYGGGSTYYADSVKGRFTISRDNAKNTVYLQMNSLKPEDTAVYYCAAEDGYRKMDYWGQGTQVTVSS”, the “polyreactivity (PSR sort gate)” value is on record as “low polyreactivity”. As for “QVQLVESGGGLVQAGGSLRLSCAASGRLFVYNAMGWYRQAPGKERELVAAISWRGGSTYYADSVKGRFTISRDNAKNTVYLQMYSLKPEDTAVYDCAAQRTARQFDYWGQGTQVTVSS”, the “polyreactivity (PSR sort gate)” value is given as “high polyreactivity”. The value for “QVQLVESGGGLVQAGGSLRLSCAASGRNFARYVMGWYSQAPGKERELVASISNSGGSTYYADSVKGRFTISRDNAKNTVYLQMNSLKPEDTAVYYCARRYYYYTSYRYDYWGQGTQVTVSS” was “high polyreactivity”. For “QVQLVESGGGLVQAGGSLRLSCAASGRNFDDYAMGWYRQAPGKERELVAAISDSGGTTYYADSVKGRFTISRDNAKNTVYLQMNSLKPEDTAVYYCAKRYYGPHYWGQGTQVTVSS” the value was “low polyreactivity”; for “QVQLVESGGGLVQAGGSLRLSCAASGRNFEKNAMGWSRQAPGKERELVASIDFRGGRTYADSVKGRFTISRDNAKNTVYLQMISLKPEDTAVYYCAKRQVGRKYVRYEYDSWGHGTQVTVSS”, “low polyreactivity”.

Regarding “QVQLVESGGGLVQAGGSLRLSCAASGRNFGINAMVWFRPAPGKERELVAAISRSGGRTYYADSVKGRFTISRDNAKNTVYLQMISLKPEDTAVYYCAKVPTYWYYRYYYWGQGTEVTVSS”, the “polyreactivity (PSR sort gate)” value is reported as “high polyreactivity”. The value for “QVQLVESGGGLVQAGGSLRLSCAASGRNFGVYTMGWYRQAPGKERELVAAITSGGNTNYADSVKGRFTISRDNAKNNVYLQMNCLKPEDTAVYYCAARYVGNFYYPGHNYWGQVTQVTVSS” was “low polyreactivity”; that for “QVQLVESGGGLVQAGGSLRLSCAASGRNFGYYTMGWYRQAPGKERELVARINYIGSSTYYADSVKGRFTISRDNAKNTVFLLMNSLKPEDTAVYYCAAETYYFGYGYWGQGTQVTVSS” was “high polyreactivity”; that for “QVQLVESGGGLVQAGGSLRLSCAASGRNFKYNAMGSYRTAPGKERELVAAISSGGSTKYADSVKGRFTISRDNATKTVYLQMNSLKPEDTAVYYCNAVYTPYRRSFYYWGQGTQVTVSS” was “high polyreactivity”.

With “QVQLVESGGGLVQAGGSLRLSCAASGRNFRHYAMGWDRQAPGKERELVAAIRWSGGSTYYADSVKGRFTISRDNAKNTVYLQMNSLKPEETAVYYCATRDAVGHRPSGPYQLYDYWGQGTQVTVSS”, the “polyreactivity (PSR sort gate)” value is listed as “low polyreactivity”. For “QVQLVESGGGLVQAGGSLRLSCAASGRNFRKYAMGWYRQAPGKERELVAAITSSGGSTYYADSVKGRFTISRDNAKNTVYLQMNSLKPVDTAVYYCAAQKRGSPGYRRDYWGQGTQVTVSS” the value was “high polyreactivity”; for “QVQLVESGGGLVQAGGSLRLSCAASGRNFRYYAMGWYRPAPGKERELVAAISGSGGSTYYADSVKGRFTISRDNAKNTVYLQMNSLKPEDTAVYYCNARYRIPSGEGDHWGQGTQVTVSS”, “low polyreactivity”; for “QVQLVESGGGLVQAGGSLRLSCAASGRNFSYYVMGWYRPAHGKERELVAAITSGGSTNYAHSVKGRFTISRDNAKNTVYLQMNSLKPEDTAVYYCNRAYTYINRLYGYWGQGTQVTVST”, “high polyreactivity”. With “QVQLVESGGGLVQAGGSLRLSCAASGRNFVAYTMGWYRQAPGKERELVAAISTNGGRTYYADSVKGRFTISRDNAKITVYLQMNSLKPEDTAVYYCAAYRGPRADYYWGQGTQVTVSS”, the “polyreactivity (PSR sort gate)” value was “high polyreactivity”. Consider “QVQLVESGGGLVQAGGSLRLSCAASGRNFVNYAMGWYRQAPGKERELVAVISRSGGGTNYADSVKGRYTISRDNAKNTVYLQMNSLKPEDTAVYYCAASRKYGYGYWGQGTQVTVSS”, for which the “polyreactivity (PSR sort gate)” value was “high polyreactivity”. Take “QVQLVESGGGLVQAGGSLRLSCAASGRNFYYYAMGWYRQAPGKERELVATITGSGGNTYYADSVKGRFTISRDNAKNTVYLQMNSLKPEDTAVYFCNARLARGYWTPGKERPMEYWGQGTQVTVSS”: the “polyreactivity (PSR sort gate)” value was “low polyreactivity”.

Regarding “QVQLVESGGGLVQAGGSLRLSCAASGRNIQGYAMGWYRQAPGKESELVAAITLSGGSTYYADSVKGRFTISRDNAKNTVYLQMNSLKPEVTAVYYCNAYYPDEPSLYDYWGQGTQVTVSS”, the “polyreactivity (PSR sort gate)” value is on record as “low polyreactivity”. For “QVQLVESGGGLVQAGGSLRLSCAASGRNIRRYTMGLYIQAPGKEREFVAAITWSGSSTNYADSVKGRFTISRDNAKNTVYLQMNSLKPEDTAVYYCAAENRRRRDDYWGQGTQVTVSS”, the “polyreactivity (PSR sort gate)” value is on record as “high polyreactivity”. As for “QVQLVESGGGLVQAGGSLRLSCAASGRNISYNAMGGYRQAPGKERELVAAISWGGGSTYYADSVMGRFTISRDNAKNTVFLHMNSLKQDDTAVYYCAKGWYRIKRNDYWGQGTQVTVSS”, the “polyreactivity (PSR sort gate)” value is reported as “low polyreactivity”. Regarding “QVQLVESGGGLVQAGGSLRLSCAASGRNYVPYAMGWYRQAPGKERELVAALSNSGGSTYYADSVKGRFTISRDNAKNTGYLQRNSLKPEYTAVYFCAPDGRYAYGYNHWGQGTQVTGSS”, the “polyreactivity (PSR sort gate)” value is “low polyreactivity”. On to “QVQLVESGGGLVQAGGSLRLSCAASGRSFCTYAMGSYRQAPGKERELVAAITSGGSTNYADSVKGRFTISRDNAKNTVYLQMNSLKPEDTAVYYCAAVEYLRESDYWGQCTQVTVSS”, for which the “polyreactivity (PSR sort gate)” value is “low polyreactivity”. Regarding “QVQLVESGGGLVQAGGSLRLSCAASGRSFGHYAMGWYRQAPGKERELVAAITTGGNTYYADSVKGRFTISRDNAKNTVYLQMNSLKPEDTAVYYCAKRGYPYKYKYWQVYAAYDYWGQGTQVTVSS”, the “polyreactivity (PSR sort gate)” value was “low polyreactivity”.

As to “QVQLVESGGGLVQAGGSLRLSCAASGRSFGKNAMGWYRQAPGKERELVAAISTSGGRTYYADSVKGRFTISRDNAKITFFLQMNSLKPEDTAVYYCNAKGWTRPPGYDYWGQGTQVTVSS”, the “polyreactivity (PSR sort gate)” value is listed as “high polyreactivity”. As for “QVQLVESGGGLVQAGGSLRLSCAASGRSFGVYAMGWYRQAPGKERELVAVISSGGSTTYADSVKGRFTISRDNAKNTVYLQMNSLKPEDTAVYYCAAVSYRRHFGPYNYWGQGTQVTVSS”, the “polyreactivity (PSR sort gate)” value was “low polyreactivity”. As for “QVQLVESGGGLVQAGGSLRLSCAASGRSFKRYDMGGYIQAPGKERELVAAITGTGGSTYYADSVKGRFTISRDNAKNTVYLQMNSLKPEDPADYYCAARLYNTYSGFAFGYWGQGTQVTVSS”, the “polyreactivity (PSR sort gate)” value is “high polyreactivity”. Regarding “QVQLVESGGGLVQAGGSLRLSCAASGRSFSYAMGWYRQAPGKERELVAAISYGGGGTYYADSVKGRFTISRDNAKNTVYLQMNSLKPEDTAVYYCNARQYRPWYPPYGYDYWGQGTQVTVSS”, the “polyreactivity (PSR sort gate)” value is on record as “low polyreactivity”. Take “QVQLVESGGGLVQAGGSLRLSCAASGRSFYTNVMGWYRQAPGKERELVAAISSAGTTYYADSVKGRFTISRDNAKNTVYLQMNSLKPVDSEVYYCAADQVAYYGFDYWGQGTQVTVST”: the “polyreactivity (PSR sort gate)” value is “low polyreactivity”. For “QVQLVESGGGLVQAGGSLRLSCAASGRSLRYYAMGWYRQAPGKERELVAVITRDGSTYYADSVKGRFTIPRDNAKNTVYLQMNSLKPEDTAVSYCVYGLTYRSFYYWGQGTQVTVSS” the value was “high polyreactivity”. “QVQLVESGGGLVQAGGSLRLSCAASGRSNAMGWYRQAPGKERELVAAISTNGGSTYYADSVKGRFTISRDNAKNTVYLQMNSLKPEDTAVYYCAKRLGRDYTFGYWGQGTQVTVSS”: the “polyreactivity (PSR sort gate)” value was “high polyreactivity”.

As to “QVQLVESGGGLVQAGGSLRLSCAASGRSSTRNAMGWYRQAPGKERELVAAITRSGGGTYYADSVKGRFTISRDNAKNTVYLQMNSLKPEDTAVYYCAADQLSPSDGYEYWGQGTQVTVSS”, the “polyreactivity (PSR sort gate)” value is on record as “low polyreactivity”. As for “QVQLVESGGGLVQAGGSLRLSCAASGRTCFPYAMGWYRQAPGKERELVDAISSGGRTNYADSVKGRFTISRDNAKNTVYLQMNSLKPEDTAVYYCAARGYLRLYSYDYWGQGTQVTVSS”, the “polyreactivity (PSR sort gate)” value was “high polyreactivity”. Take “QVQLVESGGGLVQAGGSLRLSCAASGRTCGYYAMGWYRQAPGKEREFVAVITWSGDSTYYADSVKGRFTISRDNAKNTVYLQMNSLKPEDTAVYNGNADSGNAGTAYDDYDYSGQGTQVTVSS”: the “polyreactivity (PSR sort gate)” value was “low polyreactivity”. Take “QVQLVESGGGLVQAGGSLRLSCAASGRTCPRYGLGWYRQAPGKERELVATIRTGGRTNYADSVKGRFTISRDNAKNTVYLQMNSLKPEDTAVYYCATDSSKHPYSPTLLKFDYWGQGTQVTVSS”: the “polyreactivity (PSR sort gate)” value is reported as “low polyreactivity”.
